Publication PMC4636328, “Two Polyhydroxyalkanoate Synthases from Distinct Classes from the Aromatic Degrader Cupriavidus pinatubonensis JMP134 Exhibit the Same Substrate Preference” (PLoS ONE, 2015)

B1: PhaC1 (Cupriavidus pinatubonensis JMP134) (protein)
chain: MATGKGAAASSTEGKSQPFKFPPGPLDPATWLEWSRQWQGPEGNGGTVPGGFPGFEAFAASPLAGVKIDPAQLAEIQQRYMRDFTELWRGLAGGDTESAGKLHDRRFASEAWHKNAPYRYTAAFYLLNARALTELADAVEADPKTRQRIRFAVSQWVDAMSPANFLATNPDAQNRLIESRGESLRAGMRNMLEDLTRGKISQTDETAFEVGRNMAVTEGAVVFENEFFQLLQYKPLTDKVYTRPLLLVPPCINKFYILDLQPEGSLVRYAVEQGHTVFLVSWRNPDASMAGCTWDDYIENAAIRAIEVVRDISGQDKINTLGFCVGGTIISTALAVLAARGEHPVASLTLLTTLLDFTDTGILDVFVDEPHVQLREATLGGASGGLLRGVELANTFSFLRPNDLVWNYVVDNYLKGNTPVPFDLLFWNGDATNLPGPWYCWYLRHTYLQNELKEPGKLTVCNEPVDLGAINVPTYIYGSREDHIVPWTAAYASTALLKNDLRFVLGASGHIAGVINPPAKKKRSHWTNDALPESAQDWLAGAEEHHGSWWPDWMTWLGKQAGAKRAAPTEYGSKRYAAIEPAPGRYVKAKA
notes: full length (591 residues), C-terminal His6 tag, pET28a, E. coli BL21(DE3), Ni-NTA purified, about 65 kDa
B2: PhaC2 (Cupriavidus pinatubonensis JMP134) (protein)
chain: MTTAVGTRTLAKTTKKAKKPAASAVAPEAIVDSAPAMTGPNPFVGLRPEDMVSTAQQIGAQCVQEPTLLLQQQTKLAQDLFAVVDGSAPPPCTRDRRFGDPAWQDNPVYRMALQGYQAWRDALTGFVTGSVMDGRSKERAQYFTDLLIDAVAPTNTLLGNPAALRKTFESGGLNLVSGLVNLLTDTLTNQGMPSQVDKSAFRIGKDLAATPGAVVFRNDVLELIQYTPTTANVHARPQLIVPPQVNKFYVFDLSQGKSMVEYLVRNEMQVFMVSWRNPTTLHRDWNLDTYVGALIEAIHAIRDITGSPDVNLHGACSGAMTMSALMGYCAARGEKLVNAATLMVSVFGLDSQSQLGLFATPEAIDAARQGSQARGVLDGGELGRVFAWMRPNDLVWNYWVNNYLLGKAPPAFDILYWNNDTTRLPAGLHGQLLDMLTLNQLSTPGALRVLGQPIDLSAVDCDKYVLAGMTDHITPWKGVYRSVRAFGGKTEFVLSSSGHVQSLINPPGNAKAKFFLNDAQMADPEAWLEGATVTPSSWWEHWSEWLKTRSGPLNAAPSRLGSDRHAPCADAPGRYVTEA
notes: full length (579 residues), C-terminal His6 tag, pET28a, E. coli BL21(DE3), Ni-NTA purified, about 65 kDa
B3: PhaC1Pa (Pseudomonas aeruginosa PAO1) (protein)
chain: MSQKNNNELPKQAAENTLNLNPVIGIRGKDLLTSARMVLLQAVRQPLHSARHVAHFSLELKNVLLGQSELRPGDDDRRFSDPAWSQNPLYKRYMQTYLAWRKELHSWISHSDLSPQDISRGQFVINLLTEAMSPTNSLSNPAAVKRFFETGGKSLLDGLGHLAKDLVNNGGMPSQVDMDAFEVGKNLATTEGAVVFRNDVLELIQYRPITESVHERPLLVVPPQINKFYVFDLSPDKSLARFCLRNGVQTFIVSWRNPTKSQREWGLTTYIEALKEAIEVVLSITGSKDLNLLGACSGGITTATLVGHYVASGEKKVNAFTQLVSVLDFELNTQVALFADEKTLEAAKRRSYQSGVLEGKDMAKVFAWMRPNDLIWNYWVNNYLLGNQPPAFDILYWNNDTTRLPAALHGEFVELFKSNPLNRPGALEVSGTPIDLKQVTCDFYCVAGLNDHITPWESCYKSARLLGGKCEFILSNSGHIQSILNPPGNPKARFMTNPELPAEPKAWLEQAGKHADSWWLHWQQWLAERSGKTRKAPASLGNKTYPAGEAAPGTYVHER
notes: full length, C-terminal His6 tag, pET28a, E. coli BL21(DE3), Ni-NTA purified

How the values were obtained:
[1] = substrate: C[C@@H](O)CC(=O)SCCNC(=O)CCNC(=O)[C@H](O)C(C)(C)COP(=O)(O)OP(=O)(O)OC[C@H]1O[C@@H](n2cnc3c(N)ncnc32)[C@H](O)[C@@H]1OP(=O)(O)O; experiment: purified protein; type: biochemical, Cupriavidus pinatubonensis; settings: 50 mM PBS, pH 7.5, 20 mM MgCl2, 0.5 mM DTNB, R/S substrate mixture, R isomer counted
[2] = substrate: CCCCC[C@@H](O)CC(=O)SCCNC(=O)CCNC(=O)[C@H](O)C(C)(C)COP(=O)(O)OP(=O)(O)OC[C@H]1O[C@@H](n2cnc3c(N)ncnc32)[C@H](O)[C@@H]1OP(=O)(O)O; experiment: purified protein; type: biochemical, Pseudomonas aeruginosa; settings: 50 mM PBS, pH 7.5, 20 mM MgCl2, 0.5 mM DTNB, R/S substrate mixture, R isomer counted

Row | Protein | Km [1] | Vmax [1] | kcat [1] | kcat/Km [1] | Km [2] | Vmax [2] | kcat [2] | kcat/Km [2]
1 | B1 | 45.46 ± 6.02 µM | 38.3 µM/min | 0.664 ± 0.0352 s⁻¹ | 14700 ± 3170 M⁻¹ s⁻¹ | – | – | – | –
2 | B2 | 115.93 ± 9.15 µM | 1.74 µM/min | 0.0625 ± 0.000333 s⁻¹ | 533 ± 33.3 M⁻¹ s⁻¹ | – | – | – | –
3 | B3 | – | – | – | – | 67.28 ± 12.86 µM | 39 µM/min | 0.94 ± 0.0883 s⁻¹ | 13800 ± 4170 M⁻¹ s⁻¹
